B1: Tuftelin-interacting protein 11 (Homo sapiens), Q9UBB9 (parent)
chain: MSLSHLYRDGEGRIDDDDDERENFEITDWDLQNEFNPNRQRHWQTKEEATYGVWAERDSDDERPSFGGKRARDYSAPVNFISAGLKKGAAEEAELEDSDDEEKPVKQDDFPKDFGPRKLKTGGNFKPSQKGFAGGTKSFMDFGSWERHTKGIGQKLLQKMGYVPGRGLGKNAQGIINPIEAKQRKGKGAVGAYGSERTTQSMQDFPVVDSEEEAEEEFQKELSQWRKDPSGSKKKPKYSYKTVEELKAKGRISKKLTAPQKELSQVKVIDMTGREQKVYYSYSQISHKHNVPDDGLPLQSQQLPQSGKEAKAPGFALPELEHNLQLLIDLTEQEIIQNDRQLQYERDMVVNLFHELEKMTEVLDHEERVISNLSKVLEMVEECERRMQPDCSNPLTLDECARIFETLQDKYYEEYRMSDRVDLAVAIVYPLMKEYFKEWDPLKDCTYGTEIISKWKSLLENDQLLSHGGQDLSADAFHRLIWEVWMPFVRNIVTQWQPRNCDPMVDFLDSWVHIIPVWILDNILDQLIFPKLQKEVENWNPLTDTVPIHSWIHPWLPLMQARLEPLYSPIRSKLSSALQKWHPSDSSAKLILQPWKDVFTPGSWEAFMVKNIVPKLGMCLGELVINPHQQHMDAFYWVIDWEGMISVSSLVGLLEKHFFPKWLQVLCSWLSNSPNYEEITKWYLGWKSMFSDQVLAHPSVKDKFNEALDIMNRAVSSNVGAYMQPGARENIAYLTHTERRKDFQYEAMQERREAENMAQRGIGVAASSVPMNFKDLIETKAEEHNIVFMPVIGKRHEGKQLYTFGRIVIYIDRGVVFVQGEKTWVPTSLQSLIDMAK
partner: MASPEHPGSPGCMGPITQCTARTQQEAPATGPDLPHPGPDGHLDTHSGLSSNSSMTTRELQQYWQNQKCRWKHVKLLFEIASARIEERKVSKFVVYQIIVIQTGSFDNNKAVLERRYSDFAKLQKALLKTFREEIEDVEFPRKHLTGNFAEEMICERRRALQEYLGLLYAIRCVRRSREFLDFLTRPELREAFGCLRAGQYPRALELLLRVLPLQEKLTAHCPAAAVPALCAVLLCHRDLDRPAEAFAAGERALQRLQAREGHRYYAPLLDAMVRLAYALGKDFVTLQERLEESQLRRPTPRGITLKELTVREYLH
B2: Bcl-2-interacting killer (Homo sapiens), Q13323 (parent)
chain: MSEVRPLSRDILMETLLYEQLLEPPTMEVLGMTDSEEDLDPMEDFDSLECMEGSDALALRLACIGDEMDVSLRAPRLAQLSEVAMHSLGLAFIYDQTEDIRDVLRSFMDGFTTLKENIMRFWRSPNPGSWVSCEQVLLALLLLLALLLPLLSGGLHLLLK
partner: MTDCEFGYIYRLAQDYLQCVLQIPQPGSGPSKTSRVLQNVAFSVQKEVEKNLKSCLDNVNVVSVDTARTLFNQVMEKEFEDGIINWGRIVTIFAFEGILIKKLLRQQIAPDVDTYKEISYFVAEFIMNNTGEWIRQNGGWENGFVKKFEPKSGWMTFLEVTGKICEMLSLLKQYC
B3: Tuftelin-interacting protein 11 (Homo sapiens), Q9UBB9 (parent)
chain: B1 chain
partner: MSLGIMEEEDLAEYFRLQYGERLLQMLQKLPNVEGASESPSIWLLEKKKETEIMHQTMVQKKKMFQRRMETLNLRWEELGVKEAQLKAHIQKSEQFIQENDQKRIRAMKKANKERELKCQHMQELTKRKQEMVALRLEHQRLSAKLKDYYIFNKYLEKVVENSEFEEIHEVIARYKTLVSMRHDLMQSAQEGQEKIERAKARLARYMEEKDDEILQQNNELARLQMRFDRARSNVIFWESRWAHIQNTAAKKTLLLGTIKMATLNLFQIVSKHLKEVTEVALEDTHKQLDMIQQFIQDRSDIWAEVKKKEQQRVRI
B4: Ligand of Numb protein X 2 (Homo sapiens), Q8N448 (parent)
chain: MGTTSDEMVSVEQTSSSSLNPLCFECGQQHWTRENHLYNYQNEVDDDLVCHICLQPLLQPLDTPCGHTFCYKCLRNFLQEKDFCPLDRKRLHFKLCKKSSILVHKLLDKLLVLCPFSSVCKDVMQRCDLEAHLKNRCPGASHRRVALERRKTSRTQAEIENENGPTLLDPAGTLSPEADCLGTGAVPVERHLTSASLSTWSEEPGLDNPAFEESAGADTTQQPLSLPEGEITTIEIHRSNPYIQLGISIVGGNETPLINIVIQEVYRDGVIARDGRLLAGDQILQVNNYNISNVSHNYARAVLSQPCNTLHLTVLRERRFGNRAHNHSDSNSPREEIFQVALHKRDSGEQLGIKLVRRTDEPGVFILDLLEGGLAAQDGRLSSNDRVLAINGHDLKYGTPELAAQIIQASGERVNLTIARPGKPQPGNTIREAGNHSSSSQHHTPPPYYSRPSSHKDLTQCVTCQEKHITVKKEPHESLGMTVAGGRGSKSGELPIFVTSVPPHGCLARDGRIKRGDVLLNINGIDLTNLSHSEAVAMLKASAASPAVALKALEVQIVEEATQNAEEQPSTFSENEYDASWSPSWVMWLGLPSTLHSCHDIVLRRSYLGSWGFSIVGGYEENHTNQPFFIKTIVLGTPAYYDGRLKCGDMIVAVNGLSTVGMSHSALVPMLKEQRNKVTLTVICWPGSLV

Variants of: B1
Conditions: with snx20_human SNX20, Q7Z614

Row | effect of a mutation on the interaction | Variant
1 | with no effect | R8Q

Variants of: B2
Conditions: with BCL2A1, Q16548

Row | effect of a mutation on the interaction | Variant
2 | with no effect | D69E

Variants of: B3
Conditions: with ccd42_human CCDC42, Q96M95

Row | effect of a mutation on the interaction | Variant
3 | with no effect | R8Q
4 | with no effect | S688L

Variants of: B4
Conditions: with mk09_human MAPK9, P45984

Row | effect of a mutation on the interaction | Variant
5 | with no effect | S141A
6 | with no effect | T183I

Variants of: B4
Conditions: with optn_human OPTN

Row | effect of a mutation on the interaction | Variant
7 | with no effect | S141A
8 | with no effect | T183I

Variants of: B4
Conditions: with tbb5_human TUBB

Row | effect of a mutation on the interaction | Variant
9 | with no effect | T183I

Variants of: B4
Conditions: with at2l2_human PHYKPL

Row | effect of a mutation on the interaction | Variant
10 | with no effect | T183I

Variants of: B4
Conditions: with ip6k2_human IP6K2, Q9UHH9

Row | effect of a mutation on the interaction | Variant
11 | with no effect | T183I

Source: IntAct's records for PubMed 31515488
